Assay results as given in patent US20220195049A1 (Scripps Research, published 2022).

Target: T1, PD-L1-Fc (PD-L1 antigen protein, extracellular region Met1-Thr239 fused to human Fc) (human, UniProt Q9NZQ7 19-239)
T1 construct: range 1-239; the secreted protein lacks it; also called PD-L1-Fc antigen; pCEP4-PDL1-Fc product; not shown: human Fc fragment of the pCEP4-Fc vector
Assay: BLI (Octet); PD-1-coated biosensor dipped in a mix of PD-L1 antigen protein and antibody; KD from the Octet software

T1 sequence (Q9NZQ7 19-239): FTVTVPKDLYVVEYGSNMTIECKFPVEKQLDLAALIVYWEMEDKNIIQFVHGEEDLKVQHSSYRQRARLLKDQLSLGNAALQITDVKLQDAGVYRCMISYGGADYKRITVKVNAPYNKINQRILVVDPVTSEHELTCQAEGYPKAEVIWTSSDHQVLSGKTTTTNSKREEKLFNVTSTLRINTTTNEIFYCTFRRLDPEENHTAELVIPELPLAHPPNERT

Kd | Binder
0.00908 nM | KL001-16 (antibody, V domains shown) VH: QVQLVESGAEVKKPGSSVKVSCKASGGTFSSYAISWVRQAPGQGLEWMGRIIPILGIANYAQKFQGRVTVTADKSTSTAYMELSSLRSEDTAVYYCARSGYGYAYGSFDYWGQGTLVTVSS VL: QLVLTQPPSVSGAPGQTVTISCTGPTIGAGYDVHWYQQLPGAAPKLLIYGNLNRPSGVPDRFSGSKSGTSASLAITDLQAEDEADYYCQSYDSRLGVVFGGGTKLTVL
0.015 nM | KL001-12 (antibody, V domains shown) VH: QVQLVESGAEVKKPGSSVKVSCKASGGTFSSYAISWVRQAPGQGLEWMGRIIPILGIANYAQKFQGRVTVTADKSTSTAYMELSSLRSEDTAVYYCARSGYGYAYGSFDYWGQGTLVTVSS VL: QLVLTQPPSVSGAPGQTVTISCTGPTIGAGYDVHWYQQLPGAAPKLLIYGNLNRPSGVPDRFSGSKSGTSASLAITDLQAEDEADYYCQSYDSALGVVFGGGTKLTVL
0.0283 nM | KL001-21 (antibody, V domains shown) VH: QVQLVESGAEVKKPGSSVKVSCKASGGTFSSYAISWVRQAPGQGLEWMGRIIPVLGIANYAQKFQGRVTVTADKSTSTAYMELSSLRSEDTAVYYCARSGYGYAYGSFDYWGQGTLVTVSS VL: QLVLTQPPSVSGAPGQTVTISCTGPTIGAGYDVHWYQQLPGAAPKLLIYGNLNRPSGVPDRFSGSKSGTSASLAITDLQAEDEADYYCQAYDSTLGVVFGGGTKLTVL
0.00655 nM | KL001-19 (antibody, V domains shown) VH: QVQLVESGAEVKKPGSSVKVSCKASGGTFSSYAISWVRQAPGQGLEWMGRIIPILGIANYAQKFQGRVTVTADKSTSTAYMELSSLRSEDTAVYYCARSGYGYAYGSFDYWGQGTLVTVSS VL: QLVLTQPPSVSGAPGQTVTISCTGPTIGAGYDVHWYQQLPGAAPKLLIYGNLNRPSGVPDRFSGSKSGTSASLAITDLQAEDEADYYCQSYDSTVGVVFGGGTKLTVL
0.0204 nM | KL001-14 (antibody, V domains shown) VH: QVQLVESGAEVKKPGSSVKVSCKASGGTFSSYAISWVRQAPGQGLEWMGRIIPILGIANYAQKFQGRVTVTADKSTSTAYMELSSLRSEDTAVYYCARSGYGYAYQSFDYWGQGTLVTVSS VL: QLVLTQPPSVSGAPGQTVTISCTGPQIGAGYDVHWYQQLPGAAPKLLIYGNLNRPSGVPDRFSGSKSGTSASLAITDLQAEDEADYYCQSYDSRLGVVFGGGTKLTVL
0.049 nM | KL001-22 (antibody, V domains shown) VH: QVQLVESGAEVKKPGSSVKVSCKASGGTFSSYAISWVRQAPGQGLEWMGRISPILGIANYAQKFQGRVTVTADKSTSTAYMELSSLRSEDTAVYYCARSGYGYAYGSFDYWGQGTLVTVSS VL: QLVLTQPPSVSGAPGQTVTISCTGPTIGAGYDVHWYQQLPGAAPKLLIYGNLNRPSGVPDRFSGSKSGTSASLAITDLQAEDEADYYCQSYDSTLGVVFGGGTKLTVL
0.0572 nM | KL001-26 (antibody, V domains shown) VH: QVQLVESGAEVKKPGSSVKVSCKASGGTFSSYAISWVRQAPGQGLEWMGRIIPILGIANYAQKFQGRVTVTADKSTSTAYMELSSLRSEDTAVYYCARSGYGYAYGSFDYWGQGTLVTVSS VL: QLVLTQPPSVSGAPGQTVTISCTGPTIGQGYDVHWYQQLPGAAPKLLIYGNLNRPSGVPDRFSGSKSGTSASLAITDLQAEDEADYYCQSYDSRLGVVFGGGTKLTVL
0.0408 nM | KL001-24 (antibody, V domains shown) VH: QVQLVESGAEVKKPGSSVKVSCKASGGTFSSYAISWVRQAPGQGLEWMGRIIPILGQANYAQKFQGRVTVTADKSTSTAYMELSSLRSEDTAVYYCARSGYGYAYGSFDYWGQGTLVTVSS VL: QLVLTQPPSVSGAPGQTVTISCTGPTIGAGFDVHWYQQLPGAAPKLLIYGNLNRPSGVPDRFSGSKSGTSASLAITDLQAEDEADYYCQSYDSRLGVVFGGGTKLTVL
0.0612 nM | KL001-27 (antibody, V domains shown) VH: QVQLVESGAEVKKPGSSVKVSCKASGGTFSSYAISWVRQAPGQGLEWMGRIIPILGIANYAQKFQGRVTVTADKSTSTAYMELSSLRSEDTAVYYCARSGYGYAYGSFDYWGQGTLVTVSS VL: QLVLTQPPSVSGAPGQTVTISCTGQTIGAGYDVHWYQQLPGAAPKLLIYGNLNRPSGVPDRFSGSKSGTSASLAITDLQAEDEADYYCQSYDSTDGVVFGGGTKLTVL
0.0201 nM | KL001-10 (antibody, V domains shown) VH: QVQLVESGAEVKKPGSSVKVSCKASGGTFSSYAISWVRQAPGQGLEWMGRIIPILGIANYAQKFQGRVTVTADKSTSTAYMELSSLRSEDTAVYYCARSGYGYAYGSFDYWGQGTLVTVSS VL: QLVLTQPPSVSGAPGQTVTISCTGPTIGAGYDVHWYQQLPGAAPKLLIYGNLNRPSGVPDRFSGSKSGTSASLAITDLQAEDEADYYCQSYDQTLGVVFGGGTKLTVL
0.0216 nM | KL001-02 (antibody, V domains shown) VH: QVQLVESGAEVKKPGSSVKVSCKASGGTFSSYAISWVRQAPGQGLEWMGRIIPILGIANYAQKFQGRVTVTADKSTSTAYMELSSLRSEDTAVYYCARSGHGYAYGSFDYWGQGTLVTVSS VL: QLVLTQPPSVSGAPGQTVTISCTGPTIGQGYDVHWYQQLPGAAPKLLIYGNLNRPSGVPDRFSGSKSGTSASLAITDLQAEDEADYYCQSYDSRLGVVFGGGTKLTVL
0.0169 nM | KL001-06 (antibody, V domains shown) VH: QVQLVESGAEVKKPGSSVKVSCKASGGTFSSYAISWVRQAPGQGLEWMGRIIPILGIANYAQKFQGRVTVTADKSTSTAYMELSSLRSEDTAVYYCARSGYGYAYGSFDVWGQGTLVTVSS VL: QLVLTQPPSVSGAPGQTVTISCTGPTIGAGYDVHWYQQLPGAAPKLLIYGNLNRPSGVPDRFSGSKSGTSASLAITDLQAEDEADYYCQSYDSRLGVVFGGGTKLTVL
0.0213 nM | KL001-20 (antibody, V domains shown) VH: QVQLVESGAEVKKPGSSVKVSCKASGGTFSSYAISWVRQAPGQGLEWMGRIIPIMGIANYAQKFQGRVTVTADKSTSTAYMELSSLRSEDTAVYYCARSGYGYAYGSFDYWGQGTLVTVSS VL: QLVLTQPPSVSGAPGQTVTISCTGPTIGAGYDVHWYQQLPGAAPKLLIYGNLNRPSGVPDRFSGSKSGTSASLAITDLQAEDEADYYCQSYDSTLGVVFGGGTKLTVL
0.0137 nM | KL001-07 (antibody, V domains shown) VH: QVQLVESGAEVKKPGSSVKVSCKASGGTFSSYAISWVRQAPGQGLEWMGRQIPILGIANYAQKFQGRVTVTADKSTSTAYMELSSLRSEDTAVYYCARSGYGYAYGSFDYWGQGTLVTVSS VL: QLVLTQPPSVSGAPGQTVTISCTGPTIGAGYDVHWYQQLPGAAPKLLIYGNLNRPSGVPDRFSGSKSGTSASLAITDLQAEDEADYYCQSYDSRLGVVFGGGTKLTVL
0.0267 nM | KL001-23 (antibody, V domains shown) VH: QVQLVESGAEVKKPGSSVKVSCKASGGTFSSYAISWVRQAPGQGLEWMGRIIPILGIANYAQKFQGRVTVTADKSTSTAYMELSSLRSEDTAVYYCARSGYGYAYGVFDHWGQGTLVTVSS VL: QLVLTQPPSVSGAPGQTVTISCTGPTIGAGYDVHWYQQLPGAAPKLLIYGNLNRPSGVPDRFSGSKSGTSASLAITDLQAEDEADYYCQSYDSRLGVVFGGGTKLTVL
0.0161 nM | KL001-18 (antibody, V domains shown) VH: QVQLVESGAEVKKPGSSVKVSCKASGGTFSSYAISWVRQAPGQGLEWMGRIIPILGIANYAQKFQGRVTVTADKSTSTAYMELSSLRSEDTAVYYCARSGYGYAYGSFDYWGQGTLVTVSS VL: QLVLTQPPSVSGAPGQTVTISCTGQTIGAGYDVHWYQQLPGAAPKLLIYGNLNRPSGVPDRFSGSKSGTSASLAITDLQAEDEADYYCQSYDSTEGVVFGGGTKLTVL
0.0058 nM | KL001-15 (antibody, V domains shown) VH: QVQLVESGAEVKKPGSSVKVSCKASGGTFSSYAISWVRQAPGQGLEWMGRIIPILGIANYAQKFQGRVTVTADKSTSTAYMELSSLRSEDTAVYYCARSGYGYAYGSFDYWGQGTLVTVSS VL: QLVLTQPPSVSGAPGQTVTISCTGPTIQAGYDVHWYQQLPGAAPKLLIYGNLNRPSGVPDRFSGSKSGTSASLAITDLQAEDEADYYCQSYDSRLGVVFGGGTKLTVL
0.0163 nM | KL001-11 (antibody, V domains shown) VH: QVQLVESGAEVKKPGSSVKVSCKASGGTFSSYAISWVRQAPGQGLEWMGRIIPILGIANYAQKFQGRVTVTADKSTSTAYMELSSLRSEDTAVYYCARSGYGYAYGSFDYWGQGTLVTVSS VL: QLVLTQPPSVSGAPGQTVTISCTGPTIGAGYDVHWYQQLPGAAPKLLIYGNLNRPSGVPDRFSGSKSGTSASLAITDLQAEDEADYYCQSYDRTLGVVFGGGTKLTVL
0.0216 nM | KL001-09 (antibody, V domains shown) VH: QVQLVESGAEVKKPGSSVKVSCKASGGTFSSYAISWVRQAPGQGLEWMGRIIPILQIANYAQKFQGRVTVTADKSTSTAYMELSSLRSEDTAVYYCARSGYGYAYGSFDYWGQGTLVTVSS VL: QLVLTQPPSVSGAPGQTVTISCTGPPIGAGYDVHWYQQLPGAAPKLLIYGNLNRPSGVPDRFSGSKSGTSASLAITDLQAEDEADYYCQSYDSTPGVVFGGGTKLTVL
0.0136 nM | KL001-04 (antibody, V domains shown) VH: QVQLVESGAEVKKPGSSVKVSCKASGGTFSSYAISWVRQAPGQGLEWMGRIIPILGIANYAQKFQGRVTVTADKSTSTAYMELSSLRSEDTAVYYCARSGYGYAYGSFAAWGQGTLVTVSS VL: QLVLTQPPSVSGAPGQTVTISCTGPTIGAGYDVHWYQQLPGAAPKLLIYGNLNRPSGVPDRFSGSKSGTSASLAITDLQAEDEADYYCQSYDSTLGVVFGGGTKLTVL
0.0183 nM | KL001-17 (antibody, V domains shown) VH: QVQLVESGAEVKKPGSSVKVSCKASGGTFSSYAISWVRQAPGQGLEWMGRIIPILGIANYAQKFQGRVTVTADKSTSTAYMELSSLRSEDTAVYYCARSGYGYAYGSFDYWGQGTLVTVSS VL: QLVLTQPPSVSGAPGQTVTISCTGPVIGAGYDVHWYQQLPGAAPKLLIYGNLNRPSGVPDRFSGSKSGTSASLAITDLQAEDEADYYCQSYDSRLGVVFGGGTKLTVL
